In US20110281938, “APTAMERS TO TISSUE FACTOR PATHWAY INHIBITOR AND THEIR USE AS BLEEDING DISORDER THERAPEUTICS” (Baxter Healthcare S.A., published 2011):

What was measured:
Conditions in all cases: tags: American Diagnostica 4500PC/4900PC, E. coli expressed
[1] = biological target: T1, TFPI (tissue factor pathway inhibitor, full-length) (Homo sapiens, UniProt P10646 SEQ:1-276); assay: competition; meets binding-competition criterion; CAT no
Procedure: Each molecule was evaluated for binding to tissue factor pathway inhibitor (TFPI) in a binding-competition assay. For these experiments, 10 nM human TFPI (American Diagnostica, Stamford, Conn., catalog #4500PC) was incubated with trace amounts of radiolabeled ARC17480 and 5000 nM, 1666.67 nM, 555.56 nM, 185.19 nM, 61.73 nM, 20.58 nM, 6.86 nM, 2.29 nM, 0.76 nM or 0.25 nM of unlabeled competitor aptamer. ARC17480 was included as a competitor in every experiment as a control. For each molecule, the percentage of radiolabeled ARC17480 bound at each competitor aptamer concentration was used for analysis. The percentage of radiolabeled ARC17480 bound was plotted as a function of aptamer concentration and fit to the equation y=(max/(1+x/IC₅₀))+int, where y=the percentage of radiolabeled ARC17480 bound, x=the concentration of aptamer, max=the maximum radiolabeled ARC17480 bound, and int=the y-intercept, to generate an IC₅₀ value for binding-competition. The IC₅₀ of each aptamer was compared to the IC₅₀ of ARC17480 that was evaluated in the same experiment. A substitution was considered tolerated in the binding-competition assay if the IC₅₀ of that molecule was not more than 5-fold greater than that of ARC17480 evaluated in the same experiment. Tolerated substitutions are indicated in Table 38 as meeting the assay criteria (“yes”) or not meeting the assay criteria (“no”).

[2] = biological target: T1, TFPI (tissue factor pathway inhibitor, …); assay: as above; remark: listed apart in the source
Procedure: (§1) The substituted ARC17480 molecules were assayed for binding and function. The assays used for this evaluation were the calibrated automated thrombogram (CAT) assay, a dot-blot binding-competition assay and a FXa activity assay. The results of these assays are summarized in Table 40 and depicted in FIG. 147. A mutation was considered tolerated for activity if it met the criteria of at least two of the three assays that were carried out. Mutations that are tolerated (“yes”) and not tolerated (“no”) are identified in Table 40. The experimental details and the criteria used for each assay are described in the following paragraphs. The molecules described in this example were first tested in the CAT assay and the dot-blot binding-competition assay. In most cases, molecules were only tested in the FXa assay if there was a discrepancy between the results in the CAT assay and the dot-blot binding-competition assay.
Each molecule was evaluated for binding to tissue factor pathway inhibitor (TFPI) in a binding-competition assay. […] The IC₅₀ of each aptamer was compared to the IC₅₀ of ARC17480 that was evaluated in the same experiment. A mutation was considered tolerated in the binding-competition assay if the IC₅₀ of that molecule was not more than 5-fold greater than that of ARC17480 evaluated in the same experiment. […]

[3] = biological target: T1, TFPI (tissue factor pathway inhibitor, …); assay: competition; meets binding-competition criterion
Procedure: as §1
(§2) Each molecule was evaluated for binding to tissue factor pathway inhibitor (TFPI) in a binding-competition assay. For these experiments, 10 nM human TFPI (American Diagnostica, Stamford, Conn., catalog #4900PC) was incubated with trace amounts of radiolabeled ARC17480 and 5000 nM, 1666.67 nM, 555.56 nM, 185.19 nM, 61.73 nM, 20.58 nM, 6.86 nM, 2.29 nM, 0.76 nM or 0.25 nM of unlabeled competitor aptamer. ARC17480 was included as a competitor in every experiment as a control. For each molecule, the percentage of radiolabeled ARC17480 bound at each competitor aptamer concentration was used for analysis. The percentage of radiolabeled ARC17480 bound was plotted as a function of aptamer concentration and fit to the equation y=(max/(1+x/IC₅₀))+int, where y=the percentage of radiolabeled ARC17480 bound, x=the concentration of aptamer, max=the maximum radiolabeled ARC17480 bound, and int=the y-intercept, to generate an IC₅₀ value for binding-competition. The IC₅₀ of each aptamer was compared to the IC₅₀ of ARC17480 that was evaluated in the same experiment. A mutation was considered tolerated in the binding-competition assay if the IC₅₀ of that molecule was not more than 5-fold greater than that of ARC17480 evaluated in the same experiment. Tolerated mutations are indicated in Table 40 as meeting the assay criteria (“yes”) or not meeting the assay criteria (“no”).

[4] = biological target: T1, TFPI (tissue factor pathway inhibitor, …); assay: competition; dot-blot; CAT criterion not met
Procedure: as §1, §2

[5] = biological target: T1, TFPI (tissue factor pathway inhibitor, …); assay: competition; meets binding-competition criterion; CAT and FXa no
Procedure: as §1
Each molecule was evaluated for binding to tissue factor pathway inhibitor (TFPI) in a binding-competition assay. For these experiments, 10 nM human TFPI (American Diagnostica, Stamford, Conn., catalog #4900PC) was incubated with trace amounts of radiolabeled ARC17480 and 5000 nM, 1666.67 nM, 555.56 nM, 185.19 nM, 61.73 nM, 20.58 nM, 6.86 nM, 2.29 nM, 0.76 nM or 0.25 nM of unlabeled competitor aptamer. ARC17480 was included as a competitor in every experiment as a control. For each molecule, the percentage of radiolabeled ARC17480 bound at each competitor aptamer concentration was used for analysis. […] The IC₅₀ of each aptamer was compared to the IC₅₀ of ARC17480 that was evaluated in the same experiment. A mutation was considered tolerated in the binding-competition assay if the IC₅₀ of that molecule was not more than 5-fold greater than that of ARC17480 evaluated in the same experiment. […]

[6] = biological target: T1, TFPI (tissue factor pathway inhibitor, …); assay: competition; dot-blot
Procedure: as §1, §2

T1 sequence (P10646 29-304): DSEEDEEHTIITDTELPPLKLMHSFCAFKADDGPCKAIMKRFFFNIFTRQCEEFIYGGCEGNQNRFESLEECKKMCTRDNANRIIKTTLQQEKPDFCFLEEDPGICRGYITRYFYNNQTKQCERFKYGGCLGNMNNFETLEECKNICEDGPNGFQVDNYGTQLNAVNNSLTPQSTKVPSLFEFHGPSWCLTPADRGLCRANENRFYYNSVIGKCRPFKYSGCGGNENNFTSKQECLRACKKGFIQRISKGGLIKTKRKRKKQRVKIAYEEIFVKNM

B1: ARC33122 (mixed)
RNA: GGAAUUACUUGGCUCGUUAGGUGCGUAUAUA
modifications: 2'-OMe A/G/U, 2'-deoxy C, 3' idT
B1 was tested, and the binding signal [1] was ≤ 5 fold IC50 of ARC17480.

B2: ARC33141 (mixed)
RNA: GGAAUAUACUUGGCUCGUUAGGUGCGUAAUA
modifications: 2'-OMe A/G/U, 2'-deoxy C, 3' idT
In the case of B2, the binding signal [1] is reported as ≤ 5 fold IC50 of ARC17480.

B3: ARC33177 (mixed)
RNA: GGAAUAUACUUGGCUCGUUAGGUGCGUACAUA
modifications: 2'-OMe A/G/U and mC29, other C 2'-deoxy, 3' idT
B3 was tested, and the binding signal [2] was ≤ 5 fold IC50 of ARC17480.

B4: ARC33150 (mixed)
RNA: GUAAUAUACUUGGCUCGUUAGGUGCGUAUAUA
modifications: 2'-OMe A/G/U, 2'-deoxy C, 3' idT
In the case of B4, the binding signal [3] is reported as ≤ 5 fold IC50 of ARC17480.

B5: ARC34867 (XNA)
RNA: GGAAUCUACUUGGCUCGUUAGGUGCGUAUAUA
modifications: 2'-OMe except dC9, dC14, dC16, dC25; 3' idT
B5 was tested, and the binding signal [4] was ≤ 5 fold IC50 vs ARC17480.

B6: ARC33156 (mixed)
RNA: GGAAUAUUCUUGGCUCGUUAGGUGCGUAUAUA
modifications: 2'-OMe A/G/U, 2'-deoxy C, 3' idT
In the case of B6, the binding signal [5] is reported as ≤ 5 fold IC50 of ARC17480.

B7: ARC34861 (XNA)
RNA: GGCAUAUACUUGGCUCGUUAGGUGCGUAUAUA
modifications: 2'-OMe except dC9, dC14, dC16, dC25; 3' idT
B7 was tested, and the binding signal [6] was ≤ 5 fold IC50 vs ARC17480.

B8: ARC33149 (mixed)
RNA: UGAAUAUACUUGGCUCGUUAGGUGCGUAUAUA
modifications: 2'-OMe A/G/U, 2'-deoxy C, 3' idT
For B8, the binding signal [3] was ≤ 5 fold IC50 of ARC17480.

B9: ARC33154 (mixed)
RNA: GGAAUUUACUUGGCUCGUUAGGUGCGUAUAUA
modifications: 2'-OMe A/G/U, 2'-deoxy C, 3' idT
In the case of B9, the binding signal [2] is reported as ≤ 5 fold IC50 of ARC17480.

B10: ARC34864 (XNA)
RNA: GGAAAAUACUUGGCUCGUUAGGUGCGUAUAUA
modifications: 2'-OMe except dC9, dC14, dC16, dC25; 3' idT
With B10 the binding signal [4] was ≤ 5 fold IC50 vs ARC17480.

B11: ARC34859 (XNA)
RNA: GCAAUAUACUUGGCUCGUUAGGUGCGUAUAUA
modifications: 2'-OMe except dC9, dC14, dC16, dC25; 3' idT
With B11 the binding signal [6] was ≤ 5 fold IC50 vs ARC17480.

B12: ARC33151 (mixed)
RNA: GGUAUAUACUUGGCUCGUUAGGUGCGUAUAUA
modifications: 2'-OMe A/G/U, 2'-deoxy C, 3' idT
For B12, the binding signal [3] was ≤ 5 fold IC50 of ARC17480.

B13: ARC34860 (XNA)
RNA: GGGAUAUACUUGGCUCGUUAGGUGCGUAUAUA
modifications: 2'-OMe except dC9, dC14, dC16, dC25; 3' idT
With B13 the binding signal [6] was ≤ 5 fold IC50 vs ARC17480.

B14: ARC33180 (mixed)
RNA: GGAAUAUACUUGGCUCGUUAGGUGCGUAUAUU
modifications: 2'-OMe A/G/U, 2'-deoxy C, 3' idT
In the case of B14, the binding signal [3] is reported as ≤ 5 fold IC50 of ARC17480.

B15: ARC33179 (mixed)
RNA: GGAAUAUACUUGGCUCGUUAGGUGCGUAUACA
modifications: 2'-OMe A/G/U and mC31, other C 2'-deoxy, 3' idT
With B15 the binding signal [3] was ≤ 5 fold IC50 of ARC17480.

B16: ARC34865 (XNA)
RNA: GGAAGAUACUUGGCUCGUUAGGUGCGUAUAUA
modifications: 2'-OMe except dC9, dC14, dC16, dC25; 3' idT
B16 was tested, and the binding signal [6] was ≤ 5 fold IC50 vs ARC17480.

B17: ARC34858 (XNA)
RNA: GAAAUAUACUUGGCUCGUUAGGUGCGUAUAUA
modifications: 2'-OMe except dC9, dC14, dC16, dC25; 3' idT
For B17, the binding signal [6] was ≤ 5 fold IC50 vs ARC17480.
